In patent publication US20210024615A1 (LIVERPOOL SCHOOL OF TROPICAL MEDICINE, published 2021):

Molecular target: T1, IgG1-Fc (human, UniProt P01857 104-330 = IgG part)
T1 construct: domain: Fc
Assay: ELISA

Binder | binding result
CD23 (receptor, UniProt P06734 48-321, looked up) DTTQSLKQLEERAARNVSQVSKNLESHHGDQMAQKSQSTQISQELEELRAEQQRLKSQDLELSWNLNGLQADLSSFKSQELNERNEASDLLERLREEVTKLRMELQVSSGFVCNTCPEKWINFQRKCYYFGKGTKQWVHARYACDDMEGQLVSIHSPEEQDFLTKHASHTGSWIGLRNLDLKGEFIWVDGSHVDYSNWAPGEPTSRSQGEDCVMMRGSGRWNDAFCDRKLGAWVCDRLATCTPPASEGSAESMGPDSRPDPDGRLPTPSAPLHS | no binding
clec-4a (receptor, UniProt Q9UMR7 70-237, looked up, also called DCIR) QKYSQLLEKKTTKELVHTTLECVKKNMPVEETAWSCCPKNWKSFSSNCYFISTESASWQDSEKDCARMEAHLLVINTQEEQDFIFQNLQEESAYFVGLSDPEGQRHWQWVDQTPYNESSTFWHPREPSDPNERCVVLNFRKSPKRWGWNDVNCLGPQRSVCEMMKIHL | no binding
tetrameric human DC-SIGN (receptor, UniProt Q9NNX6 66-404, looked up) SISQEQSRQDAIYQNLTQLKAAVGELSEKSKLQEIYQELTQLKAAVGELPEKSKLQEIYQELTRLKAAVGELPEKSKLQEIYQELTWLKAAVGELPEKSKMQEIYQELTRLKAAVGELPEKSKQQEIYQELTRLKAAVGELPEKSKQQEIYQELTRLKAAVGELPEKSKQQEIYQELTQLKAAVERLCHPCPWEWTFFQGNCYFMSNSQRNWHDSITACKEVGAQLVVIKSAEEQNFLQLQSSRSNRFTWMGLSDLNQEGTWQWVDGSPLLPSFKQYWNRGEPNNVGEEDCAEFSGNGWNDDKCNLAKFWICKKSAASCSRDEEQFLSPAPATPNPPPA | no binding
dectin-2 (receptor, UniProt Q6EIG7 46-209, looked up, also called dec-2) TYGETGKRLSELHSYHSSLTCFSEGTKVPAWGCCPASWKSFGSSCYFISSEEKVWSKSEQNCVEMGAHLVVFNTEAEQNFIVQQLNESFSYFLGLSDPQGNNNWQWIDKTPYEKNVRFWHLGEPNHSAEQCASIVFWKPTGWGWNDVICETRRNSICEMNKIYL | no binding
Siglec-3 (receptor, UniProt P20138 18-259, looked up) DPNFWLQVQESVTVQEGLCVLVPCTFFHPIPYYDKNSPVHGYWFREGAIISRDSPVATNKLDQEVQEETQGRFRLLGDPSRNNCSLSIVDARRRDNGSYFFRMERGSTKYSYKSPQLSVHVTDLTHRPKILIPGTLEPGHSKNLTCSVSWACEQGTPPIFSWLSAAPTSLGPRTTHSSVLIITPRPQDHGTNLTCQVKFAGAGVTTERTIQLNVTYVPQNPTTGIFPGDGSGKQETRAGVVH | no binding
Siglec-4 (receptor, UniProt P20916 20-516, looked up, also called MAG) GHWGAWMPSSISAFEGTCVSIPCRFDFPDELRPAVVHGVWYFNSPYPKNYPPVVFKSRTQVVHESFQGRSRLLGDLGLRNCTLLLSNVSPELGGKYYFRGDLGGYNQYTFSEHSVLDIVNTPNIVVPPEVVAGTEVEVSCMVPDNCPELRPELSWLGHEGLGEPAVLGRLREDEGTWVQVSLLHFVPTREANGHRLGCQASFPNTTLQFEGYASMDVKYPPVIVEMNSSVEAIEGSHVSLLCGADSNPPPLLTWMRDGTVLREAVAESLLLELEEVTPAEDGVYACLAENAYGQDNRTVGLSVMYAPWKPTVNGTMVAVEGETVSILCSTQSNPDPILTIFKEKQILSTVIYESELQLELPAVSPEDDGEYWCVAENQYGQRATAFNLSVEFAPVLLLESHCAAARDTVQCLCVVKSNPEPSVAFELPSRNVTVNESEREFVYSERSGLVLTSILTLRGQAQAPPRVICTARNLYGAKSLELPFQGAHRLMWAKIGP | no binding
dectin-1 (receptor, UniProt Q9BXN2-2 66-201, looked up, also called dec-1) TMGVLSSPCPPNWIIYEKSCYLFSMSLNSWDGSKRQCWQLGSNLLKIDSSNELGFIVKQVSSQPDNSFWIGLSRPQTEVPWLWEDGSTFSSNLFQIRTTATQENPSPNCVWIHVSVIYDQLCSVPSYSICEKKFSM | no binding
clec-4d (receptor, UniProt Q8WXI8 39-215, looked up) CLVTHHNFSRCKRGTGVHKLEHHAKLKCIKEKSELKSAEGSTWNCCPIDWRAFQSNCYFPLTDNKTWAESERNCSGMGAHLMTISTEAEQNFIIQFLDRRLSYFLGLRDENAKGQWRWVDQTPFNPRRVFWHKNEPDNSQGENCVVLVYNQDKWAWNDVPCNFEASRICKIPGTTLN | no binding
